# Measured values: the supplement of paper PMC9112550, “Optimization of the antimicrobial peptide Bac7 by deep mutational scanning” (BMC Biology, 2022)
# Tested on: Escherichia coli TOP10
# Test: shrunken log2 fold change of peptide-encoding DNA abundance (4.5 h post-induction vs induction); higher = less antimicrobial activity (less host growth inhibition)
# Settings: time post-induction: 4.5 h; library: site-saturation at positions 5, 18, 19, 20
# 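Further: peptides expressed intracellularly from a pBAD plasmid library in pooled LB shake-flask culture, induced with 0.3% L-arabinose, DNA abundance read by NGS, three biological replicates, DESeq2 with apeglm shrinkage.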
row,Sequence,shrunken log2 fold change
1,RRIRMRPPRLPRPRPRPIMYPRP,-0.171
2,RRIRIRPPRLPRPRPRPHNTPRP,-0.961
3,RRIRRRPPRLPRPRPRPMAEPRP,-0.0431
4,RRIRLRPPRLPRPRPRPLIEPRP,0.0414
5,RRIRMRPPRLPRPRPRPTAYPRP,0.513
6,RRIRPRPPRLPRPRPRPPHDPRP,0.572
7,RRIRYRPPRLPRPRPRPENHPRP,-0.552
8,RRIRCRPPRLPRPRPRPRCEPRP,0.0872
9,RRIRHRPPRLPRPRPRPKSRPRP,-0.0231
10,RRIRIRPPRLPRPRPRPNRLPRP,-0.286
11,RRIRLRPPRLPRPRPRPYNCPRP,-0.053
12,RRIRVRPPRLPRPRPRPNKAPRP,0.13
13,RRIRLRPPRLPRPRPRPPERPRP,0.566
14,RRIRKRPPRLPRPRPRPPFEPRP,0.143
15,RRIRYRPPRLPRPRPRPQESPRP,-0.0191
16,RRIRNRPPRLPRPRPRPINYPRP,-0.262
17,RRIRPRPPRLPRPRPRPPRSPRP,0.518
18,RRIRYRPPRLPRPRPRPSSPPRP,-0.631
19,RRIRPRPPRLPRPRPRPPHVPRP,0.782
20,RRIRARPPRLPRPRPRPVSKPRP,0.141
21,RRIRGRPPRLPRPRPRPHDYPRP,0.0282
22,RRIRNRPPRLPRPRPRPRRVPRP,0.551
23,RRIRLRPPRLPRPRPRPDKSPRP,-0.118
24,RRIRVRPPRLPRPRPRPLFRPRP,-0.134
25,RRIRNRPPRLPRPRPRPKVWPRP,0.68

row,Sequence,shrunken log2 fold change
1,RRIRVRPPRLPRPRPRPAGAPRP,0.417
2,RRIRSRPPRLPRPRPRPYDHPRP,-0.795
3,RRIRQRPPRLPRPRPRPQCAPRP,-0.183
4,RRIRRRPPRLPRPRPRPFDYPRP,-0.0528
5,RRIRHRPPRLPRPRPRPYEYPRP,-0.4
6,RRIRFRPPRLPRPRPRPAHEPRP,0.0902
7,RRIRWRPPRLPRPRPRPYPIPRP,0.0625
8,RRIRMRPPRLPRPRPRPFCWPRP,0.421
9,RRIRPRPPRLPRPRPRPTVSPRP,0.433
10,RRIRDRPPRLPRPRPRPFAIPRP,-0.0496
11,RRIRVRPPRLPRPRPRPCWIPRP,-0.0862
12,RRIRNRPPRLPRPRPRPKNRPRP,0.0314
13,RRIRQRPPRLPRPRPRPNWCPRP,-0.0237
14,RRIRARPPRLPRPRPRPQDQPRP,0.302
15,RRIRTRPPRLPRPRPRPCQHPRP,0.0626
16,RRIRRRPPRLPRPRPRPSRGPRP,0.432
17,RRIRKRPPRLPRPRPRPFMCPRP,0.0653
18,RRIRHRPPRLPRPRPRPTRTPRP,0.365
19,RRIRMRPPRLPRPRPRPTAIPRP,0.072
20,RRIRVRPPRLPRPRPRPLPPPRP,0.418
21,RRIRVRPPRLPRPRPRPEGLPRP,0.0931
22,RRIRNRPPRLPRPRPRPWDCPRP,-0.118
23,RRIRWRPPRLPRPRPRPCLDPRP,-0.0586
24,RRIRYRPPRLPRPRPRPTDPPRP,-0.107
25,RRIRERPPRLPRPRPRPNFEPRP,-0.188

row,Sequence,shrunken log2 fold change
1,RRIRCRPPRLPRPRPRPPNFPRP,-0.0525
2,RRIRCRPPRLPRPRPRPQPLPRP,0.19
3,RRIRNRPPRLPRPRPRPTWQPRP,0.0252
4,RRIRKRPPRLPRPRPRPTLPPRP,0.878
5,RRIRTRPPRLPRPRPRPGDVPRP,0.0978
6,RRIRFRPPRLPRPRPRPSRLPRP,0.014
7,RRIRWRPPRLPRPRPRPDQPPRP,0.234
8,RRIRLRPPRLPRPRPRPKFSPRP,-0.0419
9,RRIRTRPPRLPRPRPRPMCDPRP,0.0157
10,RRIRDRPPRLPRPRPRPNWGPRP,0.061
11,RRIRWRPPRLPRPRPRPYRWPRP,-0.0731
12,RRIRNRPPRLPRPRPRPAKWPRP,0.112
13,RRIRERPPRLPRPRPRPVSNPRP,-1.12
14,RRIRDRPPRLPRPRPRPWSHPRP,0.0226
15,RRIRDRPPRLPRPRPRPFICPRP,-0.0606
16,RRIRWRPPRLPRPRPRPPHVPRP,0.444
17,RRIRMRPPRLPRPRPRPCHQPRP,-0.0062
18,RRIRNRPPRLPRPRPRPKPIPRP,0.202
19,RRIRARPPRLPRPRPRPNEPPRP,-0.115
20,RRIRQRPPRLPRPRPRPRLKPRP,0.161
21,RRIRRRPPRLPRPRPRPEVEPRP,0.0165
22,RRIRQRPPRLPRPRPRPLRSPRP,0.208
23,RRIRNRPPRLPRPRPRPTMIPRP,-0.387
24,RRIRARPPRLPRPRPRPYQPPRP,0.589
25,RRIRRRPPRLPRPRPRPWVPPRP,-0.0825
